The subject of data set [1] is T1, ΔCARD caspase-12 (RIK-5), 6-His fusion protein expressed in E. coli.
T1 sequence: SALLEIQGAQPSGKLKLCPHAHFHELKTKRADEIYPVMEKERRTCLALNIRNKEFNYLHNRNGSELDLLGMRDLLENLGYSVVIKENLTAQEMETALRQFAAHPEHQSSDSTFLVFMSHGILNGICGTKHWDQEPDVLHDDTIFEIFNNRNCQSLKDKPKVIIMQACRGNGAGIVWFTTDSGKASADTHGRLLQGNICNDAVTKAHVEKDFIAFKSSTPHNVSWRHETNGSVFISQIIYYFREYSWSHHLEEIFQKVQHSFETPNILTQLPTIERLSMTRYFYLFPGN

The test system of data set [2] is T2, hCaspase-12 (recombinant human caspase-12 containing the Ser-205 to Gly mutation), 6-His fusion protein expressed in E. coli.
T2 sequence: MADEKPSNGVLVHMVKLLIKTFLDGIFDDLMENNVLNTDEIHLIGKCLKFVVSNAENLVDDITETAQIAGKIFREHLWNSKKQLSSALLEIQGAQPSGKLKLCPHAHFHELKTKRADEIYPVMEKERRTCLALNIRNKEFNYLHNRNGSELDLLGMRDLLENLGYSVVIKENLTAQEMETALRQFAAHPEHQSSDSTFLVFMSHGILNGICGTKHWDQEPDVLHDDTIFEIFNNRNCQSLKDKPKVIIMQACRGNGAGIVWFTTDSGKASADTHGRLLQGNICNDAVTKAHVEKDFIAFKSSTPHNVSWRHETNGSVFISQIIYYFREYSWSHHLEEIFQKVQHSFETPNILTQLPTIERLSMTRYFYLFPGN

Data set [3] deals with DEVD-R110 substrate (Homogeneous Caspase Assay, Roche Biochemicals). Nature of the data set: cell-based or functional assay.
Data set [4] concerns the target T3, procaspase-3 immunoprecipitated from SH-EP cell lysates, P42574.
T3 chain: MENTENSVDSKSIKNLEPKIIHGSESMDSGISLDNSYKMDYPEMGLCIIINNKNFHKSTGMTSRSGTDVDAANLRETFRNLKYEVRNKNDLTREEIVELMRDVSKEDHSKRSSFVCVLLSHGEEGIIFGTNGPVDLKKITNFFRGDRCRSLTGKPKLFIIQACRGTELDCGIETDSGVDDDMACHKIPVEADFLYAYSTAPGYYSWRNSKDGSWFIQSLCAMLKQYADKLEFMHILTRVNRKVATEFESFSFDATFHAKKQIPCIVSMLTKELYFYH

For data set [5], the target named is T4, DEVD-R110 substrate (Homogeneous Caspase Assay, Roche Biochemicals).
T4 chain: DEVD

Like-named read-outs stand apart in the source and are kept apart here.

calpain II (Calbiochem): the “cleavage of human caspase-12, Western blot” value in data set [1] was “calpain II cleaves both hCaspase-12 and the ?CARD variant and that this cleavage is calcium dependent”; in data set [2], “calpain II cleaves both hCaspase-12 and the ?CARD variant and that this cleavage is calcium dependent”.
With “control (non-caspase protein) preparation”, the Measured fluorescence intensity (RFU), free rhodamine-110 released from DEVD-R110 in data set [3] is 31 RFU.

B1: hCaspase-12 (recombinant human caspase-12 containing the Ser-205 to Gly mutation), 6-His fusion protein expressed in E. coli (protein)
chain: T2 sequence
Turning to B1, the “procaspase-3 processing, Western blot with antibody to full-length caspase-3” value in data set [4] was “when procaspase-3 was incubated with recombinant human caspase-12 or the ?CARD variant, lower molecular weight bands indicative of cleaved mature subunits were observed”. For the same molecule, the “Measured fluorescence intensity (RFU), free rhodamine-110 released from DEVD-R110” value in data set [5] amounted to 807 for hCaspase-12.

B2: ΔCARD caspase-12 (RIK-5), 6-His fusion protein expressed in E. coli (protein)
chain: T1 sequence
On to B2, for which the “Measured fluorescence intensity (RFU), free rhodamine-110 released from DEVD-R110” value in data set [5] is reported as 445 for ?CARD.

For the origin of these results see patent US20030165488A1.
